Assays:
[1] = system: P1, H2N-GPQGIAGQR(GPO)4GG-OH
[2] = system: lipopeptide LP1, CH3(CH2)16COHN-GPQGIAGQR(GPO)4GG-OH

recombinant form of human MMP-9, containing the catalytic and fibronectin domains of the enzyme, sequence (chain, as listed by the source): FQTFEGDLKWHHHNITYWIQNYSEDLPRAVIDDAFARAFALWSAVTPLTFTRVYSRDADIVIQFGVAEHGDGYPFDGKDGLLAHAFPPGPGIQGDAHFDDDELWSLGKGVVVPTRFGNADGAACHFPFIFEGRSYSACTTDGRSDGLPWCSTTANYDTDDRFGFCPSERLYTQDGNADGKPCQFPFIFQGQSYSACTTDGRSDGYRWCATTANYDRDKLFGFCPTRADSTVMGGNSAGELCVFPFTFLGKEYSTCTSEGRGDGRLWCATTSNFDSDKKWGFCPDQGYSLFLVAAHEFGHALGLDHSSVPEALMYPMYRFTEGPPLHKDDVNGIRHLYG
trypsin, sequence (P00760 24-246): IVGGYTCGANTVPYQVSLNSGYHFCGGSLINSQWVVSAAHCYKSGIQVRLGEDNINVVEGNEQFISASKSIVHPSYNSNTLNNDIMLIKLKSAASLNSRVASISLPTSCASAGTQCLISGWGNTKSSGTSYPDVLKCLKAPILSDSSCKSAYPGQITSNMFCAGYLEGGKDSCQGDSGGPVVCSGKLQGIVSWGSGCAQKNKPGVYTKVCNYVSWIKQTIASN

Substance	cleavage of the peptide, products analyzed by RP-HPLC [1]	cleavage of the lipopeptide, products analyzed by RP-HPLC [2]	release of encapsulated carboxyfluorescein from LP1/DSPC liposomes (fluorescence at 518 nm, five hours) [2]	release of encapsulated carboxyfluorescein from LP1/DSPC liposomes (fluorescence at 518 nm) [2]
recombinant form of human MMP-9, containing the catalytic and fibronectin domains of the enzyme	The peptide P1 (Rpn=0.04) was efficiently cleaved by the target enzyme MMP-9	the lipopeptide LP1 (Rpn=0.11) was partially cleaved by MMP-9 (in 2 hours, FIG. 2A)	In five hours, about 55% of the encapsulated dye was found to be released	–
trypsin	efficiently cleaved by the target enzyme MMP-9 as well as by a non-specific proteolytic enzyme, trypsin	–	–	trypsin, once again failed to release the dye from the liposome

Reference: patent US20060210549
